Publication PMC9837990

Target: CH31 IgG monoclonal antibody
Assay: SPR

t1/2 [min] | Kd [nM] | koff [s⁻¹] | Substance
4.9 |  |  | GT6 tetramer (biotinylated eOD-GT6 on streptavidin) (from UniProt P22629 25-183) (complex)
44.4 |  |  | GT8 tetramer (biotinylated eOD-GT8 on streptavidin) (from UniProt P22629 25-183) (complex)
 | 5200 | > 0.01 | eOD-GT6-Avi-3C-His (designed binder)
 | 308 | > 0.01 | eOD-GT8_AviHis (designed binder)
